Measured values taken from patent publication US20150344570A1 (published 2015).
Where a chain is given by its changes, count along the chain named. Names may count otherwise. Read-outs that look alike come from different tables or passages of the source. One block for each binder: values may come before it.

Assays:
FcγRIIIa = biological target: T1, FcγRIIIa (human, UniProt P08637 17-208); test: SPR (Biacore); KD of GpH7-TA7/GpH7-B78/GpL16-k0 for FcγRIIIa divided by the KD of this antibody
T1 construct: extracellular domain; Soluble extracellular domain with a C-terminal His tag, expressed in FreeStyle293 cells and used as the analyte in Biacore; also called FcgRIIIa; CD16A; not shown: His tag attached to the C terminus
T1 sequence (P08637 17-208): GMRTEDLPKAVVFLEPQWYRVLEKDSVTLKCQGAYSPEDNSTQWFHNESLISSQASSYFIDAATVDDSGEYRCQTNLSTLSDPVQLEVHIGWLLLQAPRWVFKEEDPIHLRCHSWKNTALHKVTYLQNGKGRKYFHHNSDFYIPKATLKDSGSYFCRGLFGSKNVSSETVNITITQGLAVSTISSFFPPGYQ
Procedure: Then, K334G was also assessed in the same manner. GpH7-TA40 (SEQ ID NO: 47) resulting from the introduction of K334G into GpH7-TA7 was constructed, and expressed and prepared in combination with GpH7-B78 according to the method described in Reference Example 1. Furthermore, GpH7-TA50 (SEQ ID NO: 48) resulting from the introduction of K334G into GpH7-B78 was constructed, and expressed and prepared in combination with GpH7-TA7 according to the method described in Reference Example 1. To assess the effect of combinations with K334G, the prepared antibodies were compared for the FcγRIIIa binding according to the method described in Reference Example 2 (Table 18).
Analysis of interaction between objective antibody and the FcγR was carried out using Biacore T100 (GE Healthcare). HBS-EP+ (GE Healthcare) was used as the running buffer, and the measurement temperature was set to 25° C. Chips produced by immobilizing the antigen peptide by the amine coupling method to a Series S Sencor Chip CM5 (GE Healthcare), or alternatively, chips produced by allowing preliminarily biotinylated antigen peptides to interact with and immobilize onto a Series S Sensor Chip SA (certified) (GE Healthcare) were used. Antibodies of interest were captured onto an antigen peptide-immobilized chip, and allowed to interact to each FcγR diluted with running buffer. […]

FcγRIa = FcγRIa (human, UniProt P12314 16-292); test: SPR (Biacore), relative binding
Sequence of FcγRIa (P12314 16-292): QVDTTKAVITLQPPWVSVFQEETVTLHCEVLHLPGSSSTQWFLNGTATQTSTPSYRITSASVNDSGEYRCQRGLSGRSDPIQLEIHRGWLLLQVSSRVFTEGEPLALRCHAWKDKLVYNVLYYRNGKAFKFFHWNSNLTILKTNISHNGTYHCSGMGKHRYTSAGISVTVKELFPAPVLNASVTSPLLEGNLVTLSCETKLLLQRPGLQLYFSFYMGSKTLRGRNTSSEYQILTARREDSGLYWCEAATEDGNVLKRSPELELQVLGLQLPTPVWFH

FcgRIIa R [1] = biological target: T2, FcgRIIa R (human, UniProt P12318 34-217); test: SPR (Biacore), antibody captured, FcgR as analyte
T2 construct: extracellular domain; also called FcγRIIa R; FcγRIIa type R
T2 sequence (looked up): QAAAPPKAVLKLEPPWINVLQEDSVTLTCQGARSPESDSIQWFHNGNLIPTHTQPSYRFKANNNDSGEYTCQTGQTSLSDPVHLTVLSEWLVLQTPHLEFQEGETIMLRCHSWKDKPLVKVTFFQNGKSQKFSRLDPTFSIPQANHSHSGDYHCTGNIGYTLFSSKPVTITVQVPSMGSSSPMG
Procedure: (§1) Then, H240-Hl136 (SEQ ID NO: 97) resulting from introduction of L234Y/L235Y/G236W/H268D/S298A/A327D into H240-Hl033 and H240-Kn133 (SEQ ID NO: 98) resulting from introduction of D270E/K326D/A330K/K334E into H240-Kn033 were constructed according to the method described in Reference Example 1.
(§2) Analysis of interaction between objective antibody and the FcγR was carried out using Biacore T100 (GE Healthcare), Biacore T200, Biacore A100, and Biacore 4000. HBS-EP+ (GE Healthcare) was used as the running buffer, and the measurement temperature was set to 25° C. Chips produced by immobilizing the antigen peptide by the amine coupling method to a Series S sensor Chip CM5 (GE Healthcare), chips produced by allowing preliminarily biotinylated antigen peptides to interact with and immobilize onto a Series S Sensor Chip SA (certified) (GE Healthcare), chips produced by immobilizing Protein L (ACTIGEN, BioVision) to Series S Sencor Chip CM5 (GE Healthcare), or chips produced by immobilizing Protein A/G (Thermo Scientific) to Series S Sencor Chip CM5 (GE Healthcare) were used. Antibodies of interest were captured onto these chips, and allowed to interact to each FcγR diluted with running buffer.

FcgRIIa H [2] = biological target: T3, FcgRIIa H (human, UniProt P12318 34-217); test: SPR (Biacore), antibody captured, FcgR as analyte
T3 construct: extracellular domain; also called FcγRIIa H; FcγRIIa type H
T3 sequence (looked up): T2 sequence (looked up) with R134H
Procedure: as §1, §2

FcgRIIIa F [3] = biological target: T4, FcgRIIIa F (human, UniProt P08637 17-208); test: SPR (Biacore), antibody captured, FcgR as analyte
T4 construct: extracellular domain; polymorphic site made after J. Clin. Invest; also called FcγRIIIa F
T4 sequence (P08637 17-208): as the sequence (P08637 17-208) above
Procedure: as §1, §2

FcgRIIIa V [4] = biological target: T5, FcgRIIIa V (human, UniProt P08637 17-208); test: SPR (Biacore), antibody captured, FcgR as analyte
T5 construct: extracellular domain; polymorphic site made after J. Clin. Invest; also called FcγRIIIa V
T5 sequence (P08637 17-208 F176V limits assumed): as the sequence (P08637 17-208) above, with F160V counted along it
Procedure: as §1, §2

FcgRIa = biological target: T6, FcgRIa (human, UniProt P12314 16-292); test: SPR (Biacore), antibody captured, FcgR as analyte
T6 construct: extracellular domain; also called FcγRIa; FcγRI
T6 sequence (P12314 16-292): as the sequence (P12314 16-292) above
Procedure: (§3) Specifically, H240-Kn120 (SEQ ID NO: 99) resulting from introduction of S239M into H240-Kn067 and H240-Kn126 (SEQ ID NO: 100) resulting from introduction of Y235Q into H240-Kn120 were prepared according to the method described in Reference Example 1. […] Those described above were assayed for the binding to each FcgR according to the method described in Reference Example 8.
as §2, with “buffer. To regenerate and repeatedly use the chip, the antibodies captured onto the chip were washed off by reacting 10 mM glycine-HCl, pH 1.5.” for “buffer.”

FcgRIIa R [5] = biological target: T2, FcgRIIa R; test: SPR (Biacore), antibody captured, FcgR as analyte; remark: listed apart in the source
Procedure: as §3
as §2, with “buffer. To regenerate and repeatedly use the chip, the antibodies captured onto the chip were washed off by reacting 10 mM glycine-HCl, pH 1.5.” for “buffer.”

FcgRIIa H [6] = biological target: T3, FcgRIIa H; test: SPR (Biacore), antibody captured, FcgR as analyte; remark: listed apart in the source
Procedure: as §3
as §2, with “buffer. To regenerate and repeatedly use the chip, the antibodies captured onto the chip were washed off by reacting 10 mM glycine-HCl, pH 1.5.” for “buffer.”

FcgRIIb = biological target: T7, FcgRIIb (human, UniProt P31994 43-217); test: SPR (Biacore), antibody captured, FcgR as analyte
T7 construct: extracellular domain; also called FcγRIIb; CD32B
T7 sequence (looked up): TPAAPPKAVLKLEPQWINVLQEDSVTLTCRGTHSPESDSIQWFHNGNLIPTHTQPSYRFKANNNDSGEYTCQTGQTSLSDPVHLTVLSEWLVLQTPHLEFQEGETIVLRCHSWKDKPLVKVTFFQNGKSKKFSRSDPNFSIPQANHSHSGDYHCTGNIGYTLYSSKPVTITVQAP
Procedure: as §3
as §2, with “buffer. To regenerate and repeatedly use the chip, the antibodies captured onto the chip were washed off by reacting 10 mM glycine-HCl, pH 1.5.” for “buffer.”

FcgRIIIa F [7] = biological target: T4, FcgRIIIa F; test: SPR (Biacore), antibody captured, FcgR as analyte; remark: listed apart in the source
Procedure: as §3
as §2, with “buffer. To regenerate and repeatedly use the chip, the antibodies captured onto the chip were washed off by reacting 10 mM glycine-HCl, pH 1.5.” for “buffer.”

FcgRIIIa V [8] = biological target: T5, FcgRIIIa V; test: SPR (Biacore), antibody captured, FcgR as analyte; remark: listed apart in the source
Procedure: as §3
as §2, with “buffer. To regenerate and repeatedly use the chip, the antibodies captured onto the chip were washed off by reacting 10 mM glycine-HCl, pH 1.5.” for “buffer.”

B2: GpH7-B14/GpL16-k0 (antibody, human IgG1, kappa)
heavy: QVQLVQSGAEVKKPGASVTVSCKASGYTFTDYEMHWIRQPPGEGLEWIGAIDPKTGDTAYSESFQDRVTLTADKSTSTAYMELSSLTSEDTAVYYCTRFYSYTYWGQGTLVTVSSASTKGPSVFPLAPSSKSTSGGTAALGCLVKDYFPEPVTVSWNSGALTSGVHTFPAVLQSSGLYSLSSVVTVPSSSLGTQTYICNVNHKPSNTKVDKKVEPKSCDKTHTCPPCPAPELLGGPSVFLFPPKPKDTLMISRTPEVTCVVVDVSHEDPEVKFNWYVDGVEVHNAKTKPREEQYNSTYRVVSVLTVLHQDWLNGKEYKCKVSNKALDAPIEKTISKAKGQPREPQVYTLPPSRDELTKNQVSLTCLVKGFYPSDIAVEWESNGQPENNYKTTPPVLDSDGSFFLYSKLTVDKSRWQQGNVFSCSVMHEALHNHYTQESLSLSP
light: DIVMTQSPLSLPVTPGEPASISCQASESLVHSNRNTYLHWYLQKPGQSPQLLIYKVSNRFSGVPDRFSGSGSGTDFTLKISRVEAEDVGVYYCSQNTHVPPTFGQGTKVEIERTVAAPSVFIFPPSDEQLKSGTASVVCLLNNFYPREAKVQWKVDNALQSGNSQESVTEQDSKDSTYSLSSTLTLSKADYEKHKVYACEVTHQGLSSPVTKSFNRGEC
notes: P329D in both H chains
FcγRIa-binding activity relative to GpH7-A5/GpH7-B3/GpL16-k0 (FcγRIa): ≤ 0.2 fold

B5: H240-Kn067/H240-Hl068/L73-k0 (antibody, human IgG1, kappa)
heavy 1: QDQLVQSGAEVKKPGASVKVSCKASGFNIKDTYIQWVRQAPGQGLEWMGRIDPLRKQTKYREKFEGRVTITADTSTNTAYMELSSLRSEDTAVYYCVRSGREFDYWGQGTLVTVSSASTKGPSVFPLAPSSKSTSGGTAALGCLVKDYFPEPVTVSWNSGALTSGVHTFPAVLQSSGLYSLSSVVTVPSSSLGTQTYICNVNHKPSNTKVDKKVEPKSCDKTHTCPPCPAPEYYWGPSVFLFPPKPKDTLMISRTPEVTCVVVDVSDEDPEVKFNWYVDGVEVHNAKTKPREEQYNATYRVVSVLTVLHQDWLNGKEYKCKVSNKDLPAPIEKTISKAKGQPREPQVCTLPPSRDELTKNQVSLWCLVKGFYPSDIAVEWESNGQPENNYKTTPPVLDSDGSFFLYSKLTVDKSRWQQGNVFSCSVMHEALHNHYTQKSLSLSP
heavy 2: QDQLVQSGAEVKKPGASVKVSCKASGFNIKDTYIQWVRQAPGQGLEWMGRIDPLRKQTKYREKFEGRVTITADTSTNTAYMELSSLRSEDTAVYYCVRSGREFDYWGQGTLVTVSSASTKGPSVFPLAPSSKSTSGGTAALGCLVKDYFPEPVTVSWNSGALTSGVHTFPAVLQSSGLYSLSSVVTVPSSSLGTQTYICNVNHKPSNTKVDKKVEPKSCDKTHTCPPCPAPELLGGPSVFLFPPKPKDTLMISRTPEVTCVVVDVSHEEPEVKFNWYVDGVEVHNAKTKPREEQYNSTYRVVSVLTVLHQDWLNGKEYKCKVSNDALPKPIEETISKAKGQPREPQVYTLPPSRCELTKNQVSLSCAVKGFYPSDIAVEWESNGQPENNYKTTPPVLDSDGSFFLVSKLTVDKSRWQQGNVFSCSVMHEALHNHYTQKSLSLSP
light: DIQMTQSPSSLSASVGDRVTITCRASQDIHKYIAWYQQKPGQAPRLLIQYTSTLQPGVPSRFSGSGSGTDYTFTISSLQPEDIATYYCLQYEQLRTFGGGTKVEIKRTVAAPSVFIFPPSDEQLKSGTASVVCLLNNFYPREAKVQWKVDNALQSGNSQESVTEQDSKDSTYSLSSTLTLSKADYEKHKVYACEVTHQGLSSPVTKSFNRGEC
notes: Heterodimerized: L234Y/L235Y/G236W/H268D/S298A/A327D in the knob chain, D270E/K326D/A330K/K334E in the hole chain
Kd (FcgRIIa R [1]): 49 nM | Kd (FcgRIIa H [2]): 94 nM | Kd (FcgRIIIa F [3]): 7.1 nM | Kd (FcgRIIIa V [4]): 1.6 nM | Kd (FcgRIa): 0.26 nM | Kd (FcgRIIa R [5]): 49 nM | Kd (FcgRIIa H [6]): 94 nM | Kd (FcgRIIb): 370 nM | Kd (FcgRIIIa F [7]): 7.1 nM | Kd (FcgRIIIa V [8]): 1.6 nM

B6: H240-Kn126/H240-Hl068/L73-k0 (antibody, human IgG1, kappa)
heavy 1: B5 heavy 1 with Y234Q, S238M
heavy 2: B5 heavy 2
light: B5 light
notes: H240-Kn126: Y235Q introduced into H240-Kn120
Kd (FcgRIa): 0.4 nM | Kd (FcgRIIa R [5]): 76 nM | Kd (FcgRIIa H [6]): 170 nM | Kd (FcgRIIb): 520 nM | Kd (FcgRIIIa F [7]): 3.7 nM | Kd (FcgRIIIa V [8]): 0.64 nM

Next, values leading:

KD ratio (FcγRIIIa): 1.2
B1: GpH7-TA7/GpH7-TA50/GpL16-k0 (antibody, human IgG1, kappa)
heavy 1: QVQLVQSGAEVKKPGASVTVSCKASGYTFTDYEMHWIRQPPGEGLEWIGAIDPKTGDTAYSESFQDRVTLTADKSTSTAYMELSSLTSEDTAVYYCTRFYSYTYWGQGTLVTVSSASTKGPSVFPLAPSSKSTSGGTAALGCLVKDYFPEPVTVSWNSGALTSGVHTFPAVLQSSGLYSLSSVVTVPSSSLGTQTYICNVNHKPSNTKVDKKVEPKSCDKTHTCPPCPAPEYLWGPSVFLFPPKPKDTLMISRTPEVTCVVVDVSHEDPEVKFNWYVDGVEVHNAKTKPREEQYNATYRVVSVLTVLHQDWLNGKEYKCKVSNKALPAPIEKTISKAKGQPREPQVYTLPPSRKELTKNQVSLTCLVKGFYPSDIAVEWESNGQPENNYKTTPPVLDSDGSFFLYSKLTVDKSRWQQGNVFSCSVMHEALHNRYTQKSLSLSP
heavy 2: B1 heavy 1 with Y232L, W234G, S237D, A296S, A328L, I330E, K332G, K354D, R433H, K437E
light: B2 light
notes: Heterodimerized anti-glypican-3 IgG1 antibody; K334G is in the H chain other than the one with L234Y/G236W/S298A; also called TA7/TA50

FcγRIa-binding activity relative to GpH7-A5/GpH7-B3/GpL16-k0 (FcγRIa): ≤ 0.2 fold
B3: GpH7-B15/GpL16-k0 (antibody, human IgG1, kappa)
heavy: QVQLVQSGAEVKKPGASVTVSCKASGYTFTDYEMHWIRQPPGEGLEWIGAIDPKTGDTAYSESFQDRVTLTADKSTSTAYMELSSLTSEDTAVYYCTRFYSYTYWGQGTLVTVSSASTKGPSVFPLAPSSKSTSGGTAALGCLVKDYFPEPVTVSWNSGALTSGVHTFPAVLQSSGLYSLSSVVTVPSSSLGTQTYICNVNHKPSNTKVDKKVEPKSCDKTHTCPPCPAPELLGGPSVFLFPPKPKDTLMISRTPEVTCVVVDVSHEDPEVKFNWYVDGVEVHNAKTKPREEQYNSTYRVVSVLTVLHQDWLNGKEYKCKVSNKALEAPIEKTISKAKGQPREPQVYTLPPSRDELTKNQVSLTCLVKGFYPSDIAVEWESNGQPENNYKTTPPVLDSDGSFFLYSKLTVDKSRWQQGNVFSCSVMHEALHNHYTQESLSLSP
light: B2 light
notes: P329E in both H chains

KD ratio (FcγRIIIa): 0.5
B4: GpH7-TA40/GpH7-B78/GpL16-k0 (antibody, human IgG1, kappa)
heavy 1: B1 heavy 1 with K332G
heavy 2: B1 heavy 1 with Y232L, W234G, S237D, A296S, A328L, I330E, K354D, R433H, K437E
light: B2 light
notes: Heterodimerized anti-glypican-3 IgG1 antibody; K334G is in the same H chain as L234Y/G236W/S298A; also called TA40/B78
